# Experimental data from IntAct's records for PubMed 25728924.
# B1: Leucine-rich repeat transmembrane protein FLRT2 (Mus musculus), Q8BLU0 (parent)
# chain: MGLQTTKWPGRGAFILKFWLIISLGLYLQVSKLLACPSVCRCDRNFVYCNERSLTSVPLGIPEGVTVLYLHNNQINNAGFPAELHNVQSVHTVYLYGNQLDEFPMNLPKNVRVLHLQENNIQTISRAALAQLLKLEELHLDDNSISTVGVEDGAFREAISLKLLFLSKNHLSSVPVGLPVDLQELRVDENRIAVISDMAFQNLTSLERLIVDGNLLTNKGIAEGTFSHLTKLKEFSIVRNSLSHPPPDLPGTHLIRLYLQDNQINHIPLTAFANLRKLERLDISNNQLRMLTQGVFDHLSNLKQLTARNNPWFCDCSIKWVTEWLKYIPSSLNVRGFMCQGPEQVRGMAVRELNMNLLSCPTTTPGLPVFTPAPSTVSPTTQSPTLSVPSPSRGSVPPAPTPSKLPTIPDWDGRERVTPPISERIQLSIHFVNDTSIQVSWLSLFTVMAYKLTWVKMGHSLVGGIVQERIVSGEKQHLSLVNLEPRSTYRICLVPLDAFNYRTVEDTICSEATTHASYLNNGSNTASSHEQTTSHSMGSPFLLAGLIGGAVIFVLVVLLSVFCWHMHKKGRYTSQKWKYNRGRRKDDYCEAGTKKDNSILEMTETSFQIVSLNNDQLLKGDFRLQPIYTPNGGINYTDCHIPNNMRYCNSSVPDLEHCHT
# B2: Adhesion G protein-coupled receptor L3 (Mus musculus), Q80TS3 (parent)
# chain: MWPPQLLILTMLLAPVVHGGKHNERHPALAAPLRHAERSPGGALPPRHLLQQPAAERSTAHRGQGPRGAARGVRGPGAPGAQIAAQAFSRAPIPMAVVRRELSCESYPIELRCPGTDVIMIESANYGRTDDKICDSDPAQMENIRCYLPDAYKIMSQRCNNRTQCAVVAGPDVFPDPCPGTYKYLEVQYECVPYKVEQKVFLCPGLLKGVYQSEHLFESDHQSGAWCKDPLQASDKIYYMPWTPYRTDTLTEYSSKDDFIAGRPTTTYKLPHRVDGTGFVVYDGALFFNKERTRNIVKFDLRTRIKSGEAIIANANYHDTSPYRWGGKSDIDLAVDENGLWVIYATEQNNGKIVISQLNPYTLRIEGTWDTAYDKRSASNAFMICGILYVVKSVYEDDDNEATGNKIDYIYNTDQSKDSLVDVPFPNSYQYIAAVDYNPRDNLLYVWNNYHVVKYSLDFGPLDSRSGPVHHGQVSYISPPIHLDSELERPPVRGISTTGSLGMGSTTTSTTLRTTTWNIGRSTTASLPGRRNRSTSTPSPAVEVLDDVTTHLPSAASQIPAMEESCEAVEAREIMWFKTRQGQVAKQPCPAGTIGVSTYLCLAPDGIWDPQGPDLSNCSSPWVNHITQKLKSGETAANIARELAEQTRNHLNAGDITYSVRAMDQLVGLLDVQLRNLTPGGKDSAARSLNKLQKRERSCRAYVQAMVETVNNLLQPQALNAWRDLTTSDQLRAATMLLDTVEESAFVLADNLLKTDIVRENTDNIQLEVARLSTEGNLEDLKFPENMGHGSTIQLSANTLKQNGRNGEIRVAFVLYNNLGPYLSTENASMKLGTEAMSTNHSVIVNSPVITAAINKEFSNKVYLADPVVFTVKHIKQSEENFNPNCSFWSYSKRTMTGYWSTQGCRLLTTNKTHTTCSCNHLTNFAVLMAHVEVKHSDAVHDLLLDVITWVGILLSLVCLLICIFTFCFFRGLQSDRNTIHKNLCISLFVAELLFLIGINRTDQPIACAVFAALLHFFFLAAFTWMFLEGVQLYIMLVEVFESEHSRRKYFYLVGYGMPALIVAVSAAVDYRSYGTDKVCWLRLDTYFIWSFIGPATLIIMLNVIFLGIALYKMFHHTAILKPESGCLDNINYEDNRPFIKSWVIGAIALLCLLGLTWAFGLMYINESTVIMAYLFTIFNSLQGMFIFIFHCVLQKKVRKEYGKCLRTHCCSGKSTESSIGSGKTSGSRTPGRYSTGSQSRIRRMWNDTVRKQSESSFITGDINSSASLNREGLLNNARDTSVMDTLPLNGNHGNSYSIAGGEYLSNCVQIIDRGYNHNETALEKKILKELTSNYIPSYLNNHERSSEQNRNMMNKLVNNLGSGSEDDAIVLDDAASFNHEESLGLELIHEESDAPLLPPRVYSTDNHQPHHYSRRRFPQDHSESFFPLLTDEHTEDLQSPHRDSLYTSMPALAGVPAADSVTTSTQTEAAAAKGGDAEDVYYKSMPNLGSRNHVHPLHAYYQLGRGSSDGFIVPPNKDGASPEGTSKGPAHLVTSL
# partner: B1 chain
# Variants of: B1
# Details: with agrl3_mouse Adgrl3, Q80TS3
row,effect of a mutation on the interaction,Variant
1,disrupting interaction strength,R186N;D188T

# Variants of: B2
# Details: with flrt2_mouse Flrt2, Q8BLU0
row,effect of a mutation on the interaction,Variant
1,decreasing interaction strength,T267N;K269T
2,decreasing interaction strength,P244N;R246T
3,disrupting interaction strength,R324N;G326T
4,disrupting interaction strength,R292N;R294T
